{"source": "patent US20100322950", "key": {"[1]": {"test_system": "recombinant human osteopontin (OPN), full-length", "sequence (chain, as listed by the source)": "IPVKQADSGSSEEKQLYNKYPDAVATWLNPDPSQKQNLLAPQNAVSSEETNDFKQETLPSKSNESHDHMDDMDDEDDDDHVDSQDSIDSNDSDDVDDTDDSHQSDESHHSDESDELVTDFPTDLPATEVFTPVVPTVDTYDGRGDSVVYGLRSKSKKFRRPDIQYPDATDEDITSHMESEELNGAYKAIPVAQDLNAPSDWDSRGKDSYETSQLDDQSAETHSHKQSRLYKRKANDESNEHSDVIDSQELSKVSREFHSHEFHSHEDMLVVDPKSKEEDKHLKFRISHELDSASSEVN"}, "[2]": {"target": "tissue inhibitor of matrix metalloproteinase-1 (TIMP-1) (UniProt P01033)", "sequence (P01033 24-207)": "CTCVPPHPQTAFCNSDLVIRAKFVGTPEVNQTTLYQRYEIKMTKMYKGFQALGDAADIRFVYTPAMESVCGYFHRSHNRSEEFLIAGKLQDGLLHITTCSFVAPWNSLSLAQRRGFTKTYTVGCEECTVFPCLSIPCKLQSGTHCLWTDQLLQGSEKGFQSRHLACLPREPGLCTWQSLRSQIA"}}}
{"substance": "human matrix metalloproteinase-9 (MMP-9) (Calbiochem)", "values": [{"measurement": "in vitro proteolytic cleavage of OPN (SDS-PAGE, N-terminal microsequencing, western blot)", "setting": "[1]", "result": "Recombinant MMP-9 cleaved OPN at two predominant sites in vitro, residues 166 and 210, resulting in 4 identified fragments"}, {"measurement": "MMP-9 cleavage of OPN (formation of the OPN-5 kD fragment), TIMP-1 added to the reaction", "setting": "[2]", "result": "could not be detected in cleavage reactions partially inhibited by the concomitant addition of EDTA, a naturally-occurring inhibitor of MMP-9 (tissue inhibitor of matrix metalloproteinase-1, or TIMP-1), or the hydroxamate MMP-9 inhibitor I"}]}
